The target of assay [1] is actin filaments (UniProt P68135).
Assay [2] has the same target. The source holds these as a separate data set.
The target is the same in assay [3]. This is another data set of the same source.

Chain of human β-cardiac myosin motor domain::GFP chimera (P12883 1-787, change not shown): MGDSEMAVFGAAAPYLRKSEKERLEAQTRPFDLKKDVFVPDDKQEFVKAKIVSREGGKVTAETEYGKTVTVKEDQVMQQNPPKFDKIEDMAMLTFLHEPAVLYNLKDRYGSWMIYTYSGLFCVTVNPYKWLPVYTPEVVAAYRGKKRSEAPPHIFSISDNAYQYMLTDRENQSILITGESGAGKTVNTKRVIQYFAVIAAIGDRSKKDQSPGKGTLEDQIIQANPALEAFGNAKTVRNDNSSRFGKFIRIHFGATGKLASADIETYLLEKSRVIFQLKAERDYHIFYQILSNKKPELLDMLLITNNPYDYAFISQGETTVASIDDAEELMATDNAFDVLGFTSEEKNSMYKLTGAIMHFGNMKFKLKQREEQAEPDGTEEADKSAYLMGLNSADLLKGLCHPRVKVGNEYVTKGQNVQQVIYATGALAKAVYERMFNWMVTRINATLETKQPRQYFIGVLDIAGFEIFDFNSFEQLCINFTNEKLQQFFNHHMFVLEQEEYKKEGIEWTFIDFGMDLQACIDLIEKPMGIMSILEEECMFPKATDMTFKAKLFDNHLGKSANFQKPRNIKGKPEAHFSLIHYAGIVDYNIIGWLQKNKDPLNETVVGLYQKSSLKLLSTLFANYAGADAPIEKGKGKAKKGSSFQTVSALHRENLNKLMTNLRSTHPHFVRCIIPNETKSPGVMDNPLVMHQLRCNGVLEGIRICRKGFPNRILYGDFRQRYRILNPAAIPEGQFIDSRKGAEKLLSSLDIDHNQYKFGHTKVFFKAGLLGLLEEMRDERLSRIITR
Chain of human β-cardiac heavy meromyosin (P12883 1-1138): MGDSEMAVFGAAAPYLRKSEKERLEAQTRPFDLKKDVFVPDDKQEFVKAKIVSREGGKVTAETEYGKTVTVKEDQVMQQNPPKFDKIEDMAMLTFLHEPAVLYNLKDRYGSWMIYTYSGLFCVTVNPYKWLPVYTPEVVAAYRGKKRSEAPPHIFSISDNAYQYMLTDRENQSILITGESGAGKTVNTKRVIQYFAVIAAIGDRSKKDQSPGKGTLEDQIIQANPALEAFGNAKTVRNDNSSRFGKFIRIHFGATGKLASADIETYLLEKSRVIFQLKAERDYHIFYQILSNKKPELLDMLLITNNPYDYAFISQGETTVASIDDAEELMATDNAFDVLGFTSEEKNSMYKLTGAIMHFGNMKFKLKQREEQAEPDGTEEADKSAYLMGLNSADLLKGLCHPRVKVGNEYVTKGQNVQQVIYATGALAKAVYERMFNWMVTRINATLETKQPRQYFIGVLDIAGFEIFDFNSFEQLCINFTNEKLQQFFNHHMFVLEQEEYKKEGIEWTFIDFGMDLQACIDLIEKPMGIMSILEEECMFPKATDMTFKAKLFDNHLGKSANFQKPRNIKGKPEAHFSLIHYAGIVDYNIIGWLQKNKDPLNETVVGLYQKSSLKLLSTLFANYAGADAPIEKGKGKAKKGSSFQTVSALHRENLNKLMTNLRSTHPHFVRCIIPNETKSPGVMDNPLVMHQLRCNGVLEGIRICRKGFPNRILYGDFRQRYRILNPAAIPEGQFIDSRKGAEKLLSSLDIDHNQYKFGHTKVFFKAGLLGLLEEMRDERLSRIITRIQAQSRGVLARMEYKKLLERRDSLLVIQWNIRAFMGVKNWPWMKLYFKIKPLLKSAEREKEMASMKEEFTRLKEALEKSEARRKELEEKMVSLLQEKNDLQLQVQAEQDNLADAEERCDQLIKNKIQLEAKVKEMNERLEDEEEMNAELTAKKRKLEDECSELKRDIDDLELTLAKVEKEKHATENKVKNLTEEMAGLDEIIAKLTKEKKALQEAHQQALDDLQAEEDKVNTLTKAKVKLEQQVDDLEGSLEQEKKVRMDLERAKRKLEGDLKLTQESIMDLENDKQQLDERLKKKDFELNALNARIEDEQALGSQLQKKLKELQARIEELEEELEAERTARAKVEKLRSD

As to “human β-cardiac heavy meromyosin (from UniProt P12883 1-1138) (domain or fragment)”, the actin filament velocity in the in vitro motility assay (cHMM bound directly to nitrocellulose, 32 °C), without OM and with OM titrated from 0.42 to 12.5 μM; slowed 15–20-fold by OM with actin filaments [1] was 0.8 μm s^−1.

“human β-cardiac myosin motor domain::GFP chimera (from UniProt P12883 1-787) (domain or fragment)”: in the assay with actin filaments [2], the sliding actin filament velocity in the in vitro motility assay (cMD held by anti-GFP, 32 °C), without OM and with OM titrated from 0.42 to 12.5 μM; slowed 15–20-fold by OM is 0.8 μm s^−1. In the assay with actin filaments [3], this substance had a K ATPase for actin activation of the steady-state ATPase of the cMD (0.06 μM cMD, 0–100 μM actin), with 100 μM OM of 5.4 µM and a K ATPase for actin activation of the steady-state ATPase of the cMD (0.06 μM cMD, 0–100 μM actin), without OM of 22.5 µM.

The record behind these values is paper PMC4918383.
